Test results reported in paper PMC10491184 (bioRxiv, 2023).
Values joined by “and” are separate entries in the source; they are usually repeats but may differ in a detail not shown here. Identical values can stand only once.

What was measured:
[1] = biological target: Escherichia coli transcription termination factor ρ K115E (E. coli, UniProt P0AG30 1-419, K115E); experiment: SEC
[2] = biological target: Escherichia coli transcription termination factor ρ F89S (E. coli, UniProt P0AG30 1-419, F89S); experiment: SEC
[3] = biological target: Escherichia coli transcription termination factor ρ, wildtype (E. coli, UniProt P0AG30 1-419); experiment: cryo-EM structure
[4] = biological target: Rho (transcription termination factor) wt;Rof Y13A (Escherichia coli;Escherichia coli, UniProt P0AG30;P0AFW8 1-419;1-84, |Y13A); experiment: fluorescence anisotropy
[5] = biological target: T1, Rho (transcription termination factor) wt (Escherichia coli, UniProt P0AG30 1-419); experiment: fluorescence anisotropy
[6] = biological target: Rho (transcription termination factor) wt;Rof D14A (Escherichia coli;Escherichia coli, UniProt P0AG30;P0AFW8 1-419;1-84, |D14A); experiment: fluorescence anisotropy
[7] = biological target: T1, Rho (transcription termination factor) …; experiment: fluorescence anisotropy; remark: listed apart in the source

B1: Escherichia coli Rof, wildtype, tag-less (natural protein, E. coli)
chain: MNDTYQPINCDDYDNLELACQHHLMLTLELKDGEKLQAKASDLVSRKNVEYLVVEAAGETRELRLDKITSFSHPEIGTVVVSES
With B1 the binding result [1] was “binds”, the binding result [2] was “binds” and the “stoichiometry N” value [3] was 5 Rof molecules per ρ hexamer and 4 Rof molecules per ρ pentamer.

In the case of CCCCCCCCCCCCCCC (ssDNA) [dC15], the binding result [4] is reported as “binds”, the Kd [5] is reported as 1 µM and the binding result [6] is reported as “binds”.

UUUUUUUUUUUU (ssRNA) [rU12]: binds [7].
